B1: MMP1 (parent)
chain: MFFKDRFYMRTNPFYPEVELNFIS
B2: RIT1 (parent)
chain: FHALVREIRRKEKEAVLAMEKKSK

Variants of: B1
Assay: protein stability index of a GFP-peptide fusion (GPS, HEK-293T) (PSI 1-6); higher = more stable
Details: c terminus: a fixed tail appended
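Also: lentivirally expressed fusions sorted by FACS into six bins by GFP to DsRed ratio, PSI derived from sequencing read proportions per bin multiplied by bin number.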

Protein stability index, by site and new letter:
F22: H 2.16, E 2.38, V 2.92, P 2.18, W 2.09, Q 1.9, I 3.29, R 2.69, D 1.31, S 1.67, M 2.32, K 1.83, N 2.15, A 2.48, C 2.19, T 1.65, G 2.22, Y 2.94, L 3.27
N21: G 4.41, I 3.34, Y 3.15, P 2.26, C 3.71, A 2.56, H 2.76, D 3.07, F 2.33, R 2.74, K 1.96, T 3.97, Q 3.29, M 1.94, V 2.67, W 2.85, S 2.91, L 3
L20: T 1.85, I 3.27, Q 1.36, W 3.09, V 2.11, P 1.99, S 2.35, H 2.98, R 2.25, K 3.34, N 2.06, G 1.59
S24: A 2.44, D 2.77, T 3.07, P 3.07, K 2.83, L 4.01, Y 3.13, C 2.33, E 2.3, G 2.88, N 2.88, V 3.21, R 2.05, M 2.75, W 3.15, F 3.13, H 2.68, Q 2.87
I23: A 2.47, N 1.53, V 3.61, T 1.56, E 2.33, K 2.16, P 3.27, H 1.76, M 3.28, W 3.27, Y 1.75, C 2.81, R 3.09, L 3.31, D 2.65, G 1.67, S 2.63, F 2.41, Q 2.34

Variants of: B2
Assay: as above
Details: c terminus: a fixed tail appended

Protein stability index, by site and new letter:
I8: F 2.34, Y 2.01, K 2.31, D 3.15, H 2.14, V 1.78, W 2.35, L 1.65, G 2.23, Q 2.47, S 3.08, E 2.87, M 2.32, N 2.77, C 2.25, P 2.28, R 2.32, T 1.87, A 2.93
E14: H 1.96, A 2.29, D 1.41, F 2.15, G 1.39, C 1.58
E12: S 3, M 3.96, D 2.13, I 3.76, K 2.03, G 2.28, Q 1.89, V 2.48, Y 2.69, F 1.64, T 2.42, L 1.81, C 1.81, H 2.05, A 3.79, N 2.45, R 2.06
K13: D 1.56, Y 1.81, F 2.27, M 1.5, I 3.75, R 1.67, E 1.08, W 1.95, C 2.01, A 2.04, Q 2.58, H 2.38, T 1.77, L 3.67, N 2.02, V 1.26, P 2.32, S 2.42, G 1.37
F1: K 4.06, W 2.43, P 4.61, R 4.48, H 4.2, V 3.04, E 5.2, N 4.67, S 4.14, C 3.53, D 4.03, A 3.95, G 4.36, M 3.69, Q 4.72, L 2.86, T 4.16, Y 1.92, I 2.93
A3: K 2.04, I 2.12, Y 2.13, E 1.48, P 1.45, F 2.34, C 2.07, Q 2.45, R 2.05, S 1.42, T 2.28, G 2.15, V 1.69, L 1.97, N 1.87, M 1.96, H 1.41, D 2.19
V5: W 1.77, L 2.01, D 2.85, A 1.46, Q 2.19, T 1.98, G 2.14, P 1.73, H 1.97, M 2.54, Y 1.82, K 1.84, R 2.27, C 2.08, F 1.97, N 1.8, I 2.56, S 1.43, E 2.65
L4: Q 2.08, P 3.1, K 2.99, W 1.77, D 3.26, H 2.36, F 2.35, N 2.65, S 2.77, V 2.24, M 3.92, G 2.52, E 3.18, I 2.35, Y 2.66, T 2.23, C 1.92, R 2.44, A 2.06
H2: N 3.23, L 2.61, S 1.96, E 3.37, Y 2.72, F 2.73, W 3.04, Q 2.95, A 2.64, R 3.02, D 3.76, I 2.04, C 2.57, K 2.73, G 2.83, P 3.35, M 2, T 2.55
E7: Q 1.32, Y 2.04, F 1.82, V 3.23, D 1.8, R 1.87, H 1.97, P 2.58, S 2.44, M 2.82, I 2.24, G 1.62, N 2.44, C 2.16, K 1.36, A 2.79, W 1.59, L 4.8, T 1.5
R9: E 2.06, K 1.77, T 1.64, W 2.02, Y 2.09, A 1.82, I 2, V 2.42, H 1.54, S 1.85, M 2.03, D 2.48, P 2.8, C 1.72, N 2.23, Q 2.5, L 2.12, G 2.27
R10: L 1.55, C 2.7, H 2.18, G 2.06, I 2.61, A 3.88, E 1.7, W 1.75, Y 1.82, D 1.94, V 2.29, K 1.33, Q 1.36, F 4.17, P 2.31, S 1.59, T 2.09, M 2.19, N 2.34
R6: G 1.76, Q 1.84, E 1.55, S 2.06, A 1.34, C 2.07, K 1.43, V 1.75, P 1.81, M 1.81, N 2.47, I 2.22, F 2.74, Y 1.73, T 3.19, H 1.42, W 1.81, L 1.55, D 1.26
K11: P 2.46, M 2.69, W 2.11, F 1.95, L 2.16, R 1.55, N 1.45, V 1.99, E 2.07, Y 1.64, C 2.28, G 2, T 2.19, S 1.58, H 2.05, Q 2.47, D 1.39, A 1.47, I 1.55

Source: the supplement of paper PMC10567573
